Laboratory results taken from patent US20180186873A1 (CEPHALON, published 2018).
Substitutions are numbered along the chain they refer to. Several values for one entry are separate records, joined by “and”; a condition that tells them apart may be missing. Identical values can stand only once. Like-named read-outs stand apart in the source and are kept apart here. One block for each binder: values may come before it.

Assays:
recombinant human IL-5 [1] = molecular target: T1, recombinant human IL-5 (human, UniProt P05113 20-134); test: SPR
recombinant human IL-5 [2] = molecular target: T1, recombinant human IL-5; test: SPR; remark: listed apart in the source
recombinant human IL-5 [3] = molecular target: T1, recombinant human IL-5; test: SPR; remark: listed apart in the source
recombinant human IL-5 [4] = molecular target: T1, recombinant human IL-5; test: SPR; remark: listed apart in the source
recombinant human IL-5 [5] = molecular target: T1, recombinant human IL-5; test: SPR; remark: listed apart in the source
recombinant human IL-5 [6] = molecular target: T1, recombinant human IL-5; test: SPR; remark: listed apart in the source
recombinant human IL-5 [7] = molecular target: T1, recombinant human IL-5; test: SPR; remark: listed apart in the source
recombinant human IL-5 [8] = molecular target: T1, recombinant human IL-5; test: SPR; remark: listed apart in the source
recombinant human IL-5 [9] = molecular target: T1, recombinant human IL-5; test: SPR; remark: listed apart in the source
rat IL-5 = molecular target: T2, rat IL-5 (rat, UniProt Q08125 20-132); test: SPR
T2 sequence (looked up): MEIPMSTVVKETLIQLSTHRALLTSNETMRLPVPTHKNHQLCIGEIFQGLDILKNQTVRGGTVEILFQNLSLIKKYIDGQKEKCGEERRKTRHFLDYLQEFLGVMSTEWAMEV

guinea pig IL-5 = molecular target: T3, guinea pig IL-5 (guinea pig, UniProt O08987 20-135); test: SPR
T3 sequence: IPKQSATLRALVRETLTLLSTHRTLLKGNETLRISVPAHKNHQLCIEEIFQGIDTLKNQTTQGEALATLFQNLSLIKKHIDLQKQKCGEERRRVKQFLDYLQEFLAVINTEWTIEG

recombinant human IL-4 = molecular target: T4, recombinant human IL-4 (human, UniProt P05112 25-153); test: SPR
T4 sequence (looked up): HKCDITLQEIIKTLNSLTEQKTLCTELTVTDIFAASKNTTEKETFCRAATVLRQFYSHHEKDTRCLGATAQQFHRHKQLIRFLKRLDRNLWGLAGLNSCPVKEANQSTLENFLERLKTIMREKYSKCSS

recombinant human IL-3 = molecular target: T5, recombinant human IL-3 (human, UniProt P08700 20-152); test: SPR
T5 sequence (looked up): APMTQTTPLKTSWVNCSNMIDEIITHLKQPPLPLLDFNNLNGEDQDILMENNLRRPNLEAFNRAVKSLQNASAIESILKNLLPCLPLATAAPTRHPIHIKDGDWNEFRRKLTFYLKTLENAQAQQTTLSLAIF

recombinant human IL-2 = recombinant human IL-2 (human, UniProt P60568 21-153); test: SPR
[10] = molecular target: recombinant human granulocyte macrophage colony stimulating factor (human, UniProt P04141 18-144); test: SPR
[11] = molecular target: T6, recombinant human macrophage colony stimulating factor (human, UniProt P09603 33-190, limits assumed); test: SPR
T6 sequence (looked up): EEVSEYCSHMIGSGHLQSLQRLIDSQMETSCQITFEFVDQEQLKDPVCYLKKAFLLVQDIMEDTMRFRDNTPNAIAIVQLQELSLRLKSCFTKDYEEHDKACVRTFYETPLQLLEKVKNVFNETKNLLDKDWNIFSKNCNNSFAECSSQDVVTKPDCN

[12] = molecular target: recombinant human growth hormone (human, UniProt P01241 27-217); test: SPR
mouse IL-5 = molecular target: T7, mouse IL-5 (mouse, UniProt P04401 21-133); test: SPR
T7 sequence (looked up): T2 sequence (looked up) with I14T, T18A, I65M, G79R, K90R, H93Q, V113G

recombinant human IL-5 [13] = molecular target: T8, recombinant human IL-5 (human, UniProt P05113 20-134); test: SPR, Protein A capture
recombinant human IL-5 [14] = molecular target: T8, recombinant human IL-5; test: SPR, Protein A capture; remark: listed apart in the source
recombinant human IL-5 [15] = molecular target: T8, recombinant human IL-5; test: SPR, Protein A capture; remark: listed apart in the source
recombinant human IL-5 [16] = molecular target: T8, recombinant human IL-5; test: SPR, Protein A capture; remark: listed apart in the source
recombinant human IL-5 [17] = molecular target: T8, recombinant human IL-5; test: SPR, Protein A capture; remark: listed apart in the source
recombinant human IL-5 [18] = molecular target: T8, recombinant human IL-5; test: SPR, Protein A capture; remark: listed apart in the source
recombinant human IL-5 [19] = molecular target: T8, recombinant human IL-5; test: SPR, Protein A capture; remark: listed apart in the source
recombinant human IL-5 [20] = molecular target: T8, recombinant human IL-5; test: SPR, Protein A capture; remark: listed apart in the source
recombinant human IL-5 [21] = molecular target: T8, recombinant human IL-5; test: SPR, Protein A capture; remark: listed apart in the source
recombinant human IL-5 [22] = molecular target: T8, recombinant human IL-5; test: SPR, Protein A capture; remark: listed apart in the source
recombinant human IL-5 [23] = molecular target: T9, recombinant human IL-5 (human, UniProt P05113 20-134); test: cell-based or functional assay
recombinant human IL-5 [24] = molecular target: T9, recombinant human IL-5
recombinant human IL-5 [25] = molecular target: T10, recombinant human IL-5 (human, UniProt P05113 20-134); test: SPR; remark: listed apart in the source
recombinant human IL-5 [26] = molecular target: T10, recombinant human IL-5; test: SPR; remark: listed apart in the source

Sequence of recombinant human granulocyte macrophage colony stimulating factor (P04141 18-144 limits assumed): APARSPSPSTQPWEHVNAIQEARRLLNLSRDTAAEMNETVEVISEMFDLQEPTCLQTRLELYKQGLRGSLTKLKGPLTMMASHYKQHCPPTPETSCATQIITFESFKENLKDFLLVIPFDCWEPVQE
Sequence of recombinant human IL-2 (P60568 21-153 limits assumed): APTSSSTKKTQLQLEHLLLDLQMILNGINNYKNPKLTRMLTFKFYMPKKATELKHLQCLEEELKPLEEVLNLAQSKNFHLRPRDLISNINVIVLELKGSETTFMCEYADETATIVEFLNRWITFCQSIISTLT
Sequence of recombinant human growth hormone (P01241 27-217 limits assumed): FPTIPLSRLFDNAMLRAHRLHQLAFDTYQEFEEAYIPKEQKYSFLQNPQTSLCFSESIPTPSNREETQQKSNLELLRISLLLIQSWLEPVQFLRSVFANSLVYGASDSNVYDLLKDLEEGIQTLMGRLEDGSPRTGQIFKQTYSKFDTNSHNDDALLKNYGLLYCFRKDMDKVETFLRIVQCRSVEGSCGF

B3: 3A5.040 (antibody, human IgG4 S228P, lambda)
heavy: not shown
light: SYVLTQPPSVSVAPGQTARITCGGNNIGSKNVYWYQQKPGQAPVLVVHDDSDRPSGIPERFSGSNSGNTATLTISRVEVGDEADYSCQVWDSSSDHVVFGGGTKLTVLGQPKAAPSVTLFPPSSEELQANKATLVCLISDFYPGAVTVAWKADSSPVKAGVETTTPSKQSNNKYAASSYLSLTPEQWKSHRSYSCQVTHEGSTVEKTVAPTECS
- Kd (recombinant human IL-5 [13]): 0.175 nM
- koff (recombinant human IL-5 [13]): 0.000245 s⁻¹
- kon (recombinant human IL-5 [13]): 1.4e+06 M⁻¹ s⁻¹
- Kd (recombinant human IL-5 [14]): 0.163 nM
- koff (recombinant human IL-5 [14]): 0.000229 s⁻¹
- kon (recombinant human IL-5 [14]): 1.41e+06 M⁻¹ s⁻¹
- Kd (recombinant human IL-5 [15]): 0.147 nM
- koff (recombinant human IL-5 [15]): 0.000213 s⁻¹
- kon (recombinant human IL-5 [15]): 1.45e+06 M⁻¹ s⁻¹
- Kd (recombinant human IL-5 [16]): 0.148 nM and 0.193 nM
- koff (recombinant human IL-5 [16]): 0.000214 s⁻¹ and 0.000285 s⁻¹
- kon (recombinant human IL-5 [16]): 1.44e+06 M⁻¹ s⁻¹ and 1.48e+06 M⁻¹ s⁻¹
- Kd (recombinant human IL-5 [17]): 0.167 nM and 0.174 nM
- koff (recombinant human IL-5 [17]): 0.000237 s⁻¹ and 0.000252 s⁻¹
- kon (recombinant human IL-5 [17]): 1.42e+06 M⁻¹ s⁻¹ and 1.45e+06 M⁻¹ s⁻¹
- Kd (recombinant human IL-5 [18]): 0.161 nM and 0.168 nM
- koff (recombinant human IL-5 [18]): 0.000232 s⁻¹ and 0.000239 s⁻¹
- kon (recombinant human IL-5 [18]): 1.44e+06 M⁻¹ s⁻¹ and 1.43e+06 M⁻¹ s⁻¹
- Kd (recombinant human IL-5 [19]): 0.18 nM
- koff (recombinant human IL-5 [19]): 0.000246 s⁻¹
- kon (recombinant human IL-5 [19]): 1.36e+06 M⁻¹ s⁻¹
- Kd (recombinant human IL-5 [20]): 0.171 nM
- koff (recombinant human IL-5 [20]): 0.000252 s⁻¹
- kon (recombinant human IL-5 [20]): 1.47e+06 M⁻¹ s⁻¹
- % 3A5.040 kd (recombinant human IL-5 [21]): 94%
- Kd (recombinant human IL-5 [22]): 0.193 nM and 0.16 nM
- koff (recombinant human IL-5 [22]): 0.000261 s⁻¹ and 0.000232 s⁻¹
- kon (recombinant human IL-5 [22]): 1.36e+06 M⁻¹ s⁻¹ and 1.45e+06 M⁻¹ s⁻¹

B4: antibody 3A5 (antibody, human IgG1, lambda, V domains shown)
VH: QVQLQESGPGLVKPSQTLSLTCTVSGGSISNGGYYWSWIRQHPGKGLEWIGYIYYSGSTYYNPSLKSRVSISVDTSKNQFSLKLNSVTAADTAVYYCASLGNWFDYWGQGTLVTVSS
VL: SSILTQPPSVSVAPGQTARITCGGNNIGSKNVYWYQQKPGQAPVLVVHDDSDRPSGIPERFSGSNSGNTATLTISRVEVGDEADYSCQVWYSSSDHVVFGGGTKLTVLG
- IC50 (pM) in TF1.6G4 (recombinant human IL-5 [23]): 35.1 pM
- Kd (recombinant human IL-5 [24]): 0.036 nM

Next, values leading:

- Kd (recombinant human IL-5 [1]): 0.168 nM
- koff (recombinant human IL-5 [1]): 0.00023 s⁻¹
- kon (recombinant human IL-5 [1]): 1.37e+06 M⁻¹ s⁻¹
- Kd (recombinant human IL-5 [2]): 0.193 nM
- koff (recombinant human IL-5 [2]): 0.000285 s⁻¹
- kon (recombinant human IL-5 [2]): 1.48e+06 M⁻¹ s⁻¹
- Kd (recombinant human IL-5 [3]): 0.15 nM
- koff (recombinant human IL-5 [3]): 0.000215 s⁻¹
- kon (recombinant human IL-5 [3]): 1.43e+06 M⁻¹ s⁻¹
- kon (recombinant human IL-5 [4]): 1.43e+06 M⁻¹ s⁻¹
- Kd (recombinant human IL-5 [5]): 0.174 nM
- koff (recombinant human IL-5 [5]): 0.000252 s⁻¹
- kon (recombinant human IL-5 [5]): 1.45e+06 M⁻¹ s⁻¹
- Kd (recombinant human IL-5 [6]): 0.16 nM
- koff (recombinant human IL-5 [6]): 0.000232 s⁻¹
- kon (recombinant human IL-5 [6]): 1.45e+06 M⁻¹ s⁻¹
- Kd (recombinant human IL-5 [7]): 0.173 nM
- koff (recombinant human IL-5 [7]): 0.000243 s⁻¹
- kon (recombinant human IL-5 [7]): 1.41e+06 M⁻¹ s⁻¹
- Kd (recombinant human IL-5 [8]): 0.168 nM
- koff (recombinant human IL-5 [8]): 0.000239 s⁻¹
- Kd (recombinant human IL-5 [9]): 0.2 nM
- koff (recombinant human IL-5 [9]): 0.000284 s⁻¹
- kon (recombinant human IL-5 [9]): 1.42e+06 M⁻¹ s⁻¹
B1: 3A5.040 (antibody, human IgG4 S228P, lambda)
heavy: not shown
light: B3 light

- binding result (rat IL-5): no binding (tested: 10 µg/ml)
- binding result (guinea pig IL-5): no binding (tested: 10 µg/ml)
- binding result (recombinant human IL-4): no binding (tested: 1 µg/ml)
- binding result (recombinant human IL-3): no binding (tested: 1 µg/ml)
- binding result (recombinant human IL-2): no binding (tested: 1 µg/ml)
- binding result [10]: no binding (tested: 1 µg/ml)
- binding result [11]: no binding (tested: 1 µg/ml)
- binding result [12]: no binding (tested: 1 µg/ml)
- binding result (mouse IL-5): no binding (tested: 10 µg/ml)
B2: antibody 3A5.046 (antibody, human IgG4 S228P, lambda)
heavy: QVQLQESGPGLVKPSQTLSLTCTVSGGSISNGGYYWSWIRQHPGKGLEWIGYIYYSGSTYYNPSLKSRVTISVDTSKNQFSLKLSSVTAADTAVYYCASLGNWFDYWGQGTLVTVSSASTKGPSVFPLAPCSRSTSESTAALGCLVKDYFPEPVTVSWNSGALTSGVHTFPAVLQSSGLYSLSSVVTVPSSSLGTKTYTCNVDHKPSNTKVDKRVESKYGPPCPPCPAPEFLGGPSVFLFPPKPKDTLYITREPEVTCVVVDVSQEDPEVQFNWYVDGVEVHNAKTKPREEQFNSTYRVVSVLTVLHQDWLNGKEYKCKVSNKGLPSSIEKTISKAKGQPREPQVYTLPPSQEEMTKNQVSLTCLVKGFYPSDIAVEWESNGQPENNYKTTPPVLDSDGSFFLYSRLTVDKSRWQEGNVFSCSVMHEALHNHYTQKSLSLSLG
light: B3 light

- % 3A5.040 kd (recombinant human IL-5 [25]): 155%
- Kd (recombinant human IL-5 [26]): 0.123 nM
B5: 3A5.294 (antibody, human IgG4 S228P, lambda, V domains shown)
VH: B4 VH with S70T, N85S
VL: B4 VL with S2Y, I3V, Y91D, V98A
